Assay results reported in paper PMC4586593.
Where two headings read alike, the source gives them in different places.

Legend:
[1] = molecular target: unphosphorylated smooth muscle myosin (SMM) filaments stabilized against ATP-induced disassembly (UniProt P10587)
[2] = molecular target: unphosphorylated smooth muscle myosin (SMM) filaments stabilized against ATP-induced disassembly (UniProt P10587); remark: listed apart in the source

smooth muscle MLCK, short isoform, from chicken gizzard, unlabeled (enzyme)
Kd [1]: 1300 nM | Kd [2]: 1500 nM
